Experimental data from PMC8727753, “Engineering of Reductive Aminases for Asymmetric Synthesis of Enantiopure Rasagiline” (Frontiers in Bioengineering and Biotechnology, 2021).

B1: AcRedAm (Aspergillus calidoustus) (protein)
chain: MSTITLFGLGAMGKALAAKYIEKGYTTTIWNRTPSKAAPLVEKGAKLANTVGEGLASADLIILCLLDNASVRQTLDQATAALNGKTVINLTNGTPSQARETSEWVISHGAQYIHGGIMAVPDMIGSPHAVLLYSGESAETFSRVEAHLSHLGTSKFLGTDPGSASLHDLALLSGMYGLFSGFFHATALVKSQPGTTATGFVQLLTPWLSAMTHYLGALAKQIDEGDYATQGSNMAMQVTGVQNIVRASEEAGVTADLIMPILGRMTRAAEAGYADVDVSAVIEFMKE
notes: dimer in homology model

Substrate: O=C1CCc2ccccc21
Assay: purified protein
Type: biochemical, Aspergillus calidoustus
Details: 20 mM propargylamine, 0.2 mM NADPH, 1% DMSO, 100 mM Tris-HCl pH 9.0

Q: For B1, which Km is on record?
A: The Km was 16 ± 4 µM.

Q: What about the kcat of the same molecule?
A: Its kcat is 0.017 ± 0.001 s⁻¹.

Q: And the kcat/Km?
A: The kcat/Km was 1060 ± 41 M⁻¹ s⁻¹.

Test system: T1, O=C1CCc2ccccc21
T1 construct: dimer in homology model
Assay: purified protein
Type: biochemical, Aspergillus calidoustus
Details: 20 mM propargylamine, 0.2 mM NADPH, 1% DMSO, 100 mM Tris-HCl pH 9.0

Q: What does the source list for “AcRedAm (Aspergillus calidoustus; Q237A)”?
A: Km: 9 ± 1 µM; kcat: 0.007 ± 0.001 s⁻¹; kcat/Km: 778 ± 21 M⁻¹ s⁻¹

Q: What does the source list for “AcRedAm (Aspergillus calidoustus; W207C)”?
A: Km: 18 ± 2 µM; kcat: 0.022 ± 0.001 s⁻¹; kcat/Km: 1220 ± 44 M⁻¹ s⁻¹

Q: For “AcRedAm (Aspergillus calidoustus; Y214M)”, which Km is on record?
A: Its Km is 12 ± 4 µM.

Q: And the kcat?
A: Its kcat is 0.014 ± 0.002 s⁻¹.

Q: What about the kcat/Km of the same molecule?
A: The kcat/Km was 1170 ± 21 M⁻¹ s⁻¹.

Q: For “AcRedAm (Aspergillus calidoustus; Q237G)”, which Km is on record?
A: Its Km is 4 ± 1 µM.

Q: What about the kcat of the same molecule?
A: Its kcat is 0.002 ± 0.001 s⁻¹.

Q: What about the kcat/Km of the same molecule?
A: Its kcat/Km is 500 ± 30 M⁻¹ s⁻¹.

Q: What does the source list for “AcRedAm (Aspergillus calidoustus; W207S/Y214C)”?
A: Km: 21 ± 4 µM; kcat: 0.026 ± 0.002 s⁻¹; kcat/Km: 1240 ± 26 M⁻¹ s⁻¹
